The chains are these.
T1: huNectin4-His (human, UniProt Q96NY8 32-349)
T1 construct: Immobilized on the SPR chip; also called humanNectin4; human Nectin4; not shown: His tag
T1 sequence (looked up): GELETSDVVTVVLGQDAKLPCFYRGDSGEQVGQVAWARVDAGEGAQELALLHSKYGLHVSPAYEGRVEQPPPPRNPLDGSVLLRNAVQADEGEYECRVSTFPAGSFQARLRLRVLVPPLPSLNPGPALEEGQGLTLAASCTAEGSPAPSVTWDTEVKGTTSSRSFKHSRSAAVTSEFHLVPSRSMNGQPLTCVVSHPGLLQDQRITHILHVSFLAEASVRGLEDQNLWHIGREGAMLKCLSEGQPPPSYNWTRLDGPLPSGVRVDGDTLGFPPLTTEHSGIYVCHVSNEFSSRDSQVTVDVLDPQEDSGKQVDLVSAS

T2: cynoNectin4-mFc (cyno, UniProt A0A2K5WES1 32-349)
T2 construct: Immobilized on the SPR chip; also called cyanoNectin4; not shown: mFc (mouse Fc)
T2 sequence: T1 sequence (looked up) with V39A, I230V

T3: cynoNectin4 antigen (cynomolgus (cyno), UniProt A0A2K5WES1 32-349)
T3 construct: construct not described; also called cynomolgus (cyno) Nectin-4
T3 sequence: T1 sequence (looked up) with V39A, I230V

T4: recombinant human Nectin4 antigen (human, UniProt Q96NY8 32-349)
T4 construct: construct not described
T4 sequence (looked up): T1 sequence (looked up)

B1: BAP-143-wildtype (antibody, V domains shown)
VH: EVQLVESGGGLVQPGGSLRLSCAASGFTFSSYNMNWVRQAPGKGLEWVSYISSSSSTIYYADSVKGRFTISRDNAKNSLSLQMNSLRDEDTAVYYCARAYYYGMDVWGQGTTVTVSS
VL: DIQMTQSPSSVSASVGDRVTITCRASQGISGWLAWYQQKPGKAPKFLIYAASTLQSGVPSRFSGSGSGTDFTLTISSLQPEDFATYYCQQANSFPPTFGGGTKVEIK
notes: 150 kDa used in SPR; also called BAP143-00-00; benchmark (BM)
B2: BAP-143-06-24-16 (antibody, V domains shown)
VH: EVQLVQSGAEVKKPGATVKISCKVSGFTFSSYNMNWIRQSPSRGLEWLGYISSSSSTIYYADSVKGRFTISRDNSKNTLYLQMNSLRAEDTAVYYCARAYYYGDDVWGQGTLVTVSS
VL: B1 VL with R24H
notes: Used as a conjugate with a linker payload (CAB ADC)
B3: BAP-143-00-01 (antibody, V domains shown)
VH: B1 VH
VL: B1 VL with L33E
notes: as for B2
B4: BAP-143-06-33-16 (antibody, V domains shown)
VH: B2 VH
VL: B1 VL with L33E
notes: as for B2
B5: BAP-143-07-03-12 (antibody, V domains shown)
VH: B1 VH with V106K
VL: B1 VL with L33E
notes: as for B2
B6: BAP-143-06-33-03 (antibody, V domains shown)
VH: QVQLVQSGAEVKKPGASVKVSCKASGFTFSSYNMNWVRQARGQRLEWIGYISSSSSTIYYADSVKGRFTISRDNSKNTLYLQMNSLRAEDTAVYYCARAYYYGMDKWGQGTLVTVSS
VL: B1 VL with F94E
notes: as for B2
B7: BAP-143-00-04 (antibody, V domains shown)
VH: B1 VH with M34D
VL: B1 VL
notes: as for B2
B8: BAP-143-00-05 (antibody, V domains shown)
VH: B1 VH with R98E
VL: B1 VL
notes: as for B2
B9: BAP-143-00-06 (antibody, V domains shown)
VH: B1 VH with M104D
VL: B1 VL
notes: as for B2
B10: BAP-143-00-03 (antibody, V domains shown)
VH: B1 VH
VL: B1 VL with P96D
notes: as for B2

Substitutions are numbered along the chain they refer to.

For orientation: Kd means the concentration at which binding is half-saturated. Usually koff stands for the first-order rate constant of dissociation. Read a low koff as slow dissociation. In general, kon refers to the rate constant with which the complex forms. As usually defined, the EC50 is the concentration that produces a half-maximal response.

The first test concerns the target T1, huNectin4-His. Put plainly: SPR, huNectin4-His immobilized, pH 6.0. As to the method: (§1) Binding kinetics of anti-Nectin4 antibodies were measured by surface plasmon resonance using a SPR2/4 instrument (Sierra Sensors, Hamburg, Germany) and flat amine sensor chips. The SPR sensor contained four flow cells (FC1-FC4), each of which was addressed individually or in groups. huNectin4-His was immobilized in FC2, and cynoNectin4-mFc in FC4. No protein was immobilized in FC1 and FC3 which were used as control surfaces for FC2 and FC4, respectively.
(§2) All injections were done at a flow rate of 25 μL/min at 25° C. The sensor surface was activated with 1-ethyl-3-(3-dimethylaminopropyl)-carbodiimide (EDC) and N-hydroxysuccinimide (NHS) (200 mM/50 mM) for 480 seconds. HuNectin4-His (2 μg/mL in 10 mM NaAc, pH4.5) was injected for 480s and the surface was inactivated by injecting 1M ethanolamine-HCl for 480s. CynoNectin4 was immobilized using the same conditions as described for huNectin4-His, except that the cynoNectin4 was diluted into 10 mM NaAc buffer having pH 5.0. The control surface was activated and deactivated using the same conditions, but without injecting protein. PBST buffer (PBS pH 7.4 with 0.05% TWEEN20™) was used as running buffer for the surface preparation. The running solution was switched to PBST with 30 mM sodium bicarbonate with the pH adjusted as indicated in the figures before the analyte injections. The instrument was equilibrated with the running solution for one hour before the first analyte injection.
(§3) The off-rate was measured for 360s. The chip surface was regenerated after each cycle of interaction analysis by injecting 6 μL of 10 mM glycine (pH 2.0). Flow cells 1 and 3 without immobilized protein were used as control surfaces for reference subtraction.
With B1, the Kd is 0.149 nM.

In turn, B2 registered a dissociation constant Kd of 0.0944 nM, a koff of 0.00033 s⁻¹ and a kon of 3.5e+06 M⁻¹ s⁻¹.

Turning to B3, binding was put at a Kd of 0.739 nM, the off-rate (koff) turned out to be 0.000771 s⁻¹ and the on-rate constant (kon) stood at 1.04e+06 M⁻¹ s⁻¹.

For the molecule B4, the Kd was determined as 0.11 nM, the koff came to 0.000195 s⁻¹ and the kon was 1.77e+06 M⁻¹ s⁻¹.

The molecule B5 yielded a Kd of 0.69 nM, a koff of 0.000869 s⁻¹ and a kon of 1.26e+06 M⁻¹ s⁻¹.

A further test concerns the target T2, cynoNectin4-mFc. Put plainly: SPR, cynoNectin4-mFc immobilized, pH 7.4. As to the method: as §1, §2, §3
Regarding B1, the dissociation constant Kd worked out at 0.244 nM.

Regarding B2, the Kd is 0.126 nM, the off-rate constant (koff) stood at 8.26e-05 s⁻¹ and the on-rate constant (kon) was determined as 655000 M⁻¹ s⁻¹.

Molecule B3 yielded a dissociation constant (Kd) of 3.25 nM, a koff of 0.000781 s⁻¹ and a kon of 240000 M⁻¹ s⁻¹.

The molecule B4 returned a Kd of 2.37 nM, a koff of 0.000175 s⁻¹ and an on-rate (kon) of 73900 M⁻¹ s⁻¹.

B5 returned a Kd of 1.85 nM, a koff of 0.000651 s⁻¹ and a kon of 352000 M⁻¹ s⁻¹.

A further test concerns the target T3, cynoNectin4 antigen. The experiment in a line: ELISA, coated antigen, PSB pH 7.4. As to the method: (§4) 1) Coat ELISA plates with 100 μL of 1 μg/mL recombinant human Nectin4 antigen or cynoNectin4 antigen in carbonate-bicarbonate coating buffer. […] 2) Cover plates with sealing film and incubate overnight at 4° C. [0444] 3) Decant plates and tap out residual liquid on a stack of paper towels. [0445] 4) Wash wells twice by dispensing 200 μL of pH 6.0 or pH 7.4 ELISA incubation buffer to the wells and completely aspirate the contents. [0446] 5) Add 200 μL of pH 6.0 or pH 7.4 ELISA incubation buffer to the wells. Cover with sealing film and place the plate onto a plate shaker set to 50 rpm for 60 minutes at room temperature. [0447] 6) Decant plates and tap out residual liquid on a stack of paper towels. […] 7) Serially dilute test articles in 3-fold dilutions starting at 3000 ng/mL in pH 6.0 or pH 7.4 ELISA incubation buffer. […] 8) Add 100 μL/well of diluted test articles to the plates [0450] 9) Cover with sealing film and place the plates onto a plate shaker set to 50 rpm for 60 minutes at room temperature. [0451] 10) Decant plates and tap out residual liquid on a stack of paper towels. [0452] 11) Wash wells three times by dispensing 200 μL of pH 6.0 or pH 7.4 ELISA wash buffer to the wells and completely aspirate the contents. […] 12) Dilute the HRP secondary antibody at 1:2500 in pH 6.0 or pH 7.4 ELISA incubation buffer. [0454] […] 14) Cover with sealing film and place the plates onto a plate shaker set to 50 rpm for 60 minutes at room temperature. […] 15) Decant plates and tap out residual liquid on a stack of paper towels. […] 16) Wash wells three times by dispensing 200 μL of pH 6.0 or pH 7.4 ELISA wash buffer to the wells and completely aspirate the contents. [0458] 17) Dispense 50 μL per well of the TMB substrate solution into all wells of the plates.
Background: In an ELISA, binding on a coated surface is turned into a signal by an enzyme label.
On to B1, for which the concentration for a half-maximal effect (EC50) stood at 0.0128 µg/mL.

B6 returned a concentration for a half-maximal effect (EC50) of 0.0723 µg/mL.

Regarding B2, a half-maximal effect (EC50) was put at 0.0282 µg/mL.

As for B5, the midpoint of the response, the EC50, lay at 0.086 µg/mL.

Another test deals with T4, recombinant human Nectin4 antigen. Put plainly: ELISA, coated antigen, PSB pH 7.4. As to the method: as §4
For B1, the EC50 was 0.0202 µg/mL.

B7: the EC50 is 0.061 µg/mL.

For B8, the 50% effective concentration (EC50) turned out to be 0.141 µg/mL.

As for B9, the concentration for a half-maximal effect (EC50) was 0.0698 µg/mL.

Turning to B10, the EC50 stood at 0.245 µg/mL.

The target in the next test is T2, cynoNectin4-mFc. Put plainly: SPR, cynoNectin4-mFc immobilized, pH 6.5. As to the method:
as §1, §2, §3
For orientation: Surface plasmon resonance follows binding to a sensor surface in real time, without labels.
The molecule B1 gave a Kd of 0.209 nM.

B2: the affinity, expressed as Kd, was 0.0534 nM; the koff came out at 8.99e-05 s⁻¹; the kon was determined as 1.68e+06 M⁻¹ s⁻¹.

The molecule B3 yielded a Kd of 1.88 nM, an off-rate (koff) of 0.000859 s⁻¹ and a kon of 457000 M⁻¹ s⁻¹.

With B4, binding was characterised by a dissociation constant (Kd) of 0.163 nM, the koff was determined as 0.00026 s⁻¹ and the on-rate constant (kon) amounted to 1.6e+06 M⁻¹ s⁻¹.

Molecule B5 had an equilibrium dissociation constant (Kd) of 1.6 nM, an off-rate constant (koff) of 0.000876 s⁻¹ and an association rate constant (kon) of 549000 M⁻¹ s⁻¹.

In the next test the target is T3, cynoNectin4 antigen. The experiment in a line: ELISA, ratio of EC50s. As to the method:
as §4
Consider B6, for which the “EC50 ratio pH 7.4/6.0” value was found to be 1.83.

For B2, the “EC50 ratio pH 7.4/6.0” value is 1.08.

Take B5: the “EC50 ratio pH 7.4/6.0” value was determined as 3.6.

The target in another test is T4, recombinant human Nectin4 antigen. The experiment in a line: ELISA, ratio of EC50s. As to the method: as §4
Consider B2, for which the “EC50 ratio pH 7.4/6.0” value was found to be 3.63.

B7: the “EC50 ratio pH 7.4/pH 6.0” value was found to be 2.37.

Turning to B8, the “EC50 ratio pH 7.4/pH 6.0” value stood at 3.2.

On to B9, for which the “EC50 ratio pH 7.4/pH 6.0” value turned out to be 2.83.

For B10, the “EC50 ratio pH 7.4/pH 6.0” value amounted to 7.13.
